One block for each substance: values may come before it.
Experiments:
[1] = biological target: hyperphosphorylated (pathological) tau from human Alzheimer's disease brain, phosphorylated at serine 396 (human) (UniProt P10636); test: binding of pathological versus non-pathological tau, brain material (Table 5)
[2] = biological target: hyperphosphorylated human tau P301L (0N4R) of rTg4510 mice, 64 kDa and 70 kDa species (human) (UniProt P10636); test: as above
[3] = biological target: total tau of Alzheimer's disease brain extract (human) (UniProt P10636); test: immunodepletion of AD brain extract with antibody-coated beads, Tau5 western blot
[4] = biological target: hyperphosphorylated (pathological) tau from human Alzheimer's disease brain, phosphorylated at serine 396 (human) (UniProt P10636); test: immunodepletion of AD brain extract with antibody-coated beads, pS396 western blot
[5] = biological target: tau phosphorylated at Serine 422 in Alzheimer's disease brain extract (human) (UniProt P10636); test: immunodepletion of AD brain extract with antibody-coated beads, P-S422 western blot
[6] = biological target: tau phosphorylated at Serine 199/202 in Alzheimer's disease brain extract (human) (UniProt P10636); test: immunodepletion of AD brain extract with 5 µg antibody on beads, P-S199/202 western blot
[7] = biological target: total tau of Alzheimer's disease brain extract (human) (UniProt P10636); test: immunodepletion of AD brain extract with antibody on Protein G magnetic beads; remaining total tau by Tau5 western blot, normalised to gapdh
[8] = biological target: hyperphosphorylated human tau P301L (0N4R) of rTg4510 mice, 64 kDa and 70 kDa species (human) (UniProt P10636); test: cell-based or functional assay
[9] = biological target: hyperphosphorylated (pathological) tau from human Alzheimer's disease brain, phosphorylated at serine 396 (human) (UniProt P10636); test: MSD fluid phase inhibition of AD-P3 capture, two-site fit
[10] = biological target: hyperphosphorylated (pathological) tau from human Alzheimer's disease brain, phosphorylated at serine 396 (human) (UniProt P10636); test: immunodepletion of AD brain extract, pS396 western blot, 75 ng antibody
[11] = biological target: tau phosphorylated at Serine 199/202 in Alzheimer's disease brain extract (human) (UniProt P10636); test: immunodepletion of AD brain extract with antibody-coated beads, P-S199/202 western blot
[12] = biological target: hyperphosphorylated (pathological) tau from human Alzheimer's disease brain, phosphorylated at serine 396 (human) (UniProt P10636); test: MSD fluid phase inhibition of Ptau antigen capture on C10-2 coated plate (competitor C10-2); lower end of the printed range 10-20 nM
[13] = biological target: hyperphosphorylated (pathological) tau from human Alzheimer's disease brain, phosphorylated at serine 396 (human) (UniProt P10636); test: MSD fluid phase inhibition of Ptau antigen capture on C10-2 coated plate (competitor C10-2); upper end of the printed range 10-20 nM
[14] = biological target: hyperphosphorylated (pathological) tau from human Alzheimer's disease brain, phosphorylated at serine 396 (human) (UniProt P10636); test: immunodepletion of AD brain extract with antibody on Protein G magnetic beads; remaining P-S396 tau by western blot, normalised to gapdh
[15] = biological target: hyperphosphorylated (pathological) tau from human Alzheimer's disease brain, phosphorylated at serine 396 (human) (UniProt P10636); test: MSD fluid phase inhibition: antibody pre-incubated with AD-P3, capture on coated mouse C10-2 (competitor); two-site fit, low affinity part (predominant); two-site fit, low affinity part (predominant)
[16] = biological target: hyperphosphorylated (pathological) tau from human Alzheimer's disease brain, phosphorylated at serine 396 (human) (UniProt P10636); test: MSD fluid phase inhibition: antibody pre-incubated with AD-P3, capture on coated mouse C10-2 (competitor); two-site fit, high affinity part; two-site fit, high affinity part (less than 25% of total binding)
[17] = biological target: hyperphosphorylated (pathological) tau from human Alzheimer's disease brain, phosphorylated at serine 396 (human) (UniProt P10636); test: MSD fluid phase inhibition of Ptau antigen capture on C10-2 coated plate (competitor C10-2)
Antibody N32S, A101T = test: MSD peptide inhibition: 1 ng/ml antibody pre-incubated with graded Ptau 386-408 (pS396), then wells coated with Ptau 386-408 (pS396/pS404) (competitor)
Antibody N32S = test: as above

AD/ctrl (ratio of binding to AD brain tau over control brain tau) [1]: 5 fold
TG/wt (ratio of binding to transgenic over wild type mouse brain tau) [2]: 2 fold
percent of total tau removed [3]: < 24%
amount of antibody for half of the max effect [4]: 0.63 µg
max effect, percent of pS396 tau removed [4]: 60%
percent of pS396 tau removed [4]: 55%
amount of antibody required to remove 50% of the pS422 tau [5]: 0.42 µg
percent of pS422 tau removed [5]: > 90%
max percent reduction of pS199/202 tau [6]: 52%
EC50 (read off the curve) [7]: 0.3 µg
Substance: 2.10.3 antibody

TG/wt (ratio of binding to transgenic over wild type mouse brain tau) [2]: 1 fold
Substance: Anti-Tau Therapeutic Antibody NI-105-4E4

decrease in aggregated tau in HEK293 cells expressing hTau-P301L seeded with Tg4510 homogenate pre-incubated with antibody (Cisbio tau aggregation assay) [8]: 40%
reduction of P3 and S1p induced tau seeding in rTg4510 cortical neurons (Cisbio tau aggregation assay) [8]: 23%
share of high affinity binding in the total binding [9]: < 25%
percent decrease in the pS396 signal at 75 ng antibody [10]: < 6%
AD/ctrl (ratio of binding to AD brain tau over control brain tau) [1]: > 100 fold
TG/wt (ratio of binding to transgenic over wild type mouse brain tau) [2]: 118 fold
amount of antibody for half of the max effect [4]: 0.3 µg
max effect, percent of pS396 tau removed [4]: 88%
amount of antibody required to remove 50% of the pS422 tau [5]: 0.27 µg
percent of pS422 tau removed [5]: > 90%
amount of antibody for 50% of the effect [11]: 0.34 µg
percent of pS199/202 tau removed [11]: 69%
IC50 [12]: > 10 nM
IC50 [13]: < 20 nM
EC50 (read off the curve) [14]: 0.2 µg
IC50 [15]: 630 nM
IC50 [16]: 14 nM
Substance: Antibody C10-2 (humanized C10-2)

TG/wt (ratio of binding to transgenic over wild type mouse brain tau) [2]: 51 fold
Substance: HJ8.5 (antibody)

TG/wt (ratio of binding to transgenic over wild type mouse brain tau) [2]: 37 fold
Substance: IPN002 (antibody)

IC50 [17]: 500 to 1000 nM
Substance: PHF-13 (antibody)

IC50 (Antibody N32S, A101T): 34 nM
IC50 (Antibody N32S): 50 nM
Substance: Ptau 386-408 (pS396) peptide

From patent publication US20190284266A1
